According to article PMC8498651 (Cell Reports, 2021):

Experiments:
[1] = target: SARS-CoV RBD (SARS-CoV, strain , UniProt P59594); test: BLI
[2] = target: Recombinant SARS-CoV-2 RBD protein (E. coli) (SARS-CoV-2, UniProt P0DTC2); test: BLI

| Binder | binding result [1] | Kd [2] [nM] | half-life of dissociation [2] [min] |
| --- | --- | --- | --- |
| 2B04, anti-SARS-CoV-2 mAb (IgG) (antibody, V domains shown) VH: QVQLKQSGPGLVAPSQSLSITCTVSGFSLINYAISWVRQPPGKGLEWLGVIWTGGGTNYNSALKSRLSISKDNSKSQVFLKMNSLQTDDTARYYCARKDYYGRYYGMDYWGQGTSVTVS VL: QAVVTQESALTTSPGETVTLTCRSSTGAVTTSNYANWVQEKPDHLFTGLIGGTNNRAPGVPARFSGSLIGDKAALTITGAQTEDEAIYFCALWYNNHWVFGGGTKLTVL | no binding | 1.05 | 23.7 |
| 2H04, anti-SARS-CoV-2 mAb (IgG) (antibody, V domains shown) VH: EVQLQQSGAELVKPGASVKMSCKASGYTFTSYWITWVKQRPGQGLEWIGDIYPGSGSTKYNEKFRSEATLTVDTSSTTAYMQLSSLTSEDSAVYYCARWDFYGSRTFDYWGQGTTLTVSS VL: DIVLTQSPAILSVSPGERVSFSCRASQNIGTIIHWYQQRTNGSPRLLIKYASESVSGIPSRFSGSGSGTDFTLSINSVESEDIADYYCQQSSSWPLTFGAGTKLEL | – | 40.1 | 1.27 |
